Test results from patent US20260069687A1.

Molecular target: Claudin 18 splice variant 2 (CLDN18.2) (human)
Experiment: cell-based or functional assay

Sequence of IMAB362 (VH): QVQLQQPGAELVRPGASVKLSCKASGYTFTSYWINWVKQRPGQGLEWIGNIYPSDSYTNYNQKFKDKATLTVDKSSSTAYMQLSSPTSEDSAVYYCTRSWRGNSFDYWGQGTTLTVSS
Sequence of IMAB362 (VL): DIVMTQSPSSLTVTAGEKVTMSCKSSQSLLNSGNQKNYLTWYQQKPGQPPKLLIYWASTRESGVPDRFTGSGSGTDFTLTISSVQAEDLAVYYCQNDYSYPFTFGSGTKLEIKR

CDC lysis of CLDN18.2-transfected CHO-K1 cells, 0.5 µg/ml IMAB362 in pooled sera from healthy controls, 80 min: 64.5% | CDC lysis of CLDN18.2-transfected CHO-K1 cells, 0.5 µg/ml fresh IMAB362 in patient pre-infusion serum (20% v/v), 80 min: 71% | CDC lysis of CLDN18.2-transfected CHO-K1 cells, 0.5 µg/ml fresh IMAB362 in pre-infusion serum of patient 0204, 80 min: 93.9% | EC50 of CDC on CLDN18.2 positive CHO-K1 target cells: 0.5 µg/mL | maximal specific lysis of NUGC-4 target cells, ADCC with patient PBMCs (E:T 20:1, 24 h), at ~30 µg/ml IMAB362: 27 to 77%
Substance: IMAB362 (antibody)
EC80-100 of total cytotoxicity (ADCC plus serum components) on NUGC-4 cells, healthy donor PBMCs, E:T 40:1, 25% serum: 200 µg/mL | specific killing of NUGC-4 cells by IMAB362 present in patient serum 28-32 days after administration (healthy donor PBMCs, E:T 40:1): > 48%
